Literature values in article PMC7443330.

Biological target: Spike RBD RBD (SARS-CoV-2) (UniProt P0DTC2)

Spike binding peptide 1 (SBP1)
Kd: 47 nM
